The chains are these.
B1: WNT3A: exogenous WNT growth factor (R&D) (protein, UniProt P56704 19-352, looked up)
Protein Wnt-3a: SYPIWWSLAVGPQYSSLGSQPILCASIPGLVPKQLRFCRNYVEIMPSVAEGIKIGIQECQHQFRGRRWNCTTVHDSLAIFGPVLDKATRESAFVHAIASAGVAFAVTRSCAEGTAAICGCSSRHQGSPGKGWKWGGCSEDIEFGGMVSREFADARENRPDARSAMNRHNNEAGRQAIASHMHLKCKCHGLSGSCEVKTCWWSQPDFRAIGDFLKDKYDSASEMVVEKHRESRGWVETLRPRYTYFKVPTERDLVYYEASPNFCEPNPETGSFGTRDRTCNVSSHGIDGCDLLCCGRGHNARAERRREKCRCVFHWCCYVSCQECTRVYDVHTCK
B2: R-SPONDIN1: exogenous growth factor R-spondin 1 (Peprotech) (protein, UniProt Q2MKA7 21-263, looked up)
R-spondin-1: SRGIKGKRQRRISAEGSQACAKGCELCSEVNGCLKCSPKLFILLERNDIRQVGVCLPSCPPGYFDARNPDMNKCIKCKIEHCEACFSHNFCTKCKEGLYLHKGRCYPACPEGSSAANGTMECSSPAQCEMSEWSPWGPCSKKQQLCGFRRGSEERTRRVLHAPVGDHAACSDTKETRRCTVRRVPCPEGQKRRKGGQGRRENANRNLARKESKEAGAGSRRRKGQQQQQQQGTVGPLTSAGPA
B3: NOGGIN: recombinant human NOGGIN, BMP antagonist (protein, UniProt Q13253 28-232, looked up)
Noggin: QHYLHIRPAPSDNLPLVDLIEHPDPIFDPKEKDLNETLLRSLLGGHYDPGFMATSPPEDRPGGGGGAAGGAEDLAELDQLLRQRPSGAMPSEIKGLEFSEGLAQGKKQRLSKKLRRKLQMWLWSQTFCPVLYAWNDLGSRFWPRYVKVGSCFSKRSCSVPEGMVCKPSKSVHLTVLRWRCQRRGGQRCGWIPIQYPIISECKCSC

In one experiment the test system is basal organoids. Description: Growth factor evaluation for basal organoids after sedimentation and clonogenic culture. It counts as cell-based, human. To be noted: pure basal cell cultures; EGF and Noggin together. The source says:
(§1) Screening exogenous growth factors in organoid culture.
Density sedimentation of basal cells. Organoid cultures within 2-3 weeks of primary plating were dissociated with 1 U/ml neutral protease (Worthington, Cat LS02100) and 100 KU of DNase I in organoid media. Basal organoids were then collected by gravity sedimentation and the supernatant was either aspirated or collected for downstream use. Basal organoids were then further fractionated on a custom Ficoll-Paque gradient (4 vol Ficoll-Paque to 1 vol PBS) and centrifuged at 300×g for 10 minutes at room temperature. The supernatant was aspirated and the organoid pellet was resuspended in 10 ml PBS in a 15 ml conical tube, collected by gravity sedimentation, and plated into ECM as described above.
As for B1, the “basal organoid growth with exogenous growth factors” value is “without additive effects”.
For B2, the “basal organoid growth with exogenous growth factors” value is “without additive effects”.
Same read-out and setting: the value for B3 was “sufficient for maximal growth”.

For a further experiment, the system named is human distal lung organoids. In words: Screening exogenous growth factors in distal lung organoid culture. It counts as cell-based. To be noted: single cell suspensions of distal lung, feeder-free; EGF and NOGGIN in combination.
Excerpt: as §1
As to B1, the “distal lung organoid growth with exogenous growth factors” value is reported as “without any additional growth-promoting effects”.
As for B2, the “distal lung organoid growth with exogenous growth factors” value is on record as “without any additional growth-promoting effects”.
On the same count and under the same terms, the value for B3 was “optimal”.

For another experiment, the system named is AT2 organoids. Description: AT2 organoid proliferation with niche factors and PORCUPINE inhibitor. As to conditions: EGF and NOGGIN together; WNT-3A and RSPONDIN-1 added exogenously.
Experimental: Screening exogenous growth factors in organoid culture. Distal airway cells were isolated and plated as above with the following exceptions: ADMEM/F12 was used instead of organoid medium during elastase digestion of lung tissue, cells were serially diluted and filtered through a 40 micron cell strainer and counted with a hemocytometer. 1000 viable epithelial cells (by Trypan blue exclusion, size, and morphology) per μL ECM were plated per 5 μL Matrigel droplet per well. Base media consisted of organoid media lacking A83-01, EGF, NOGGIN, WNT3A or RSPO1. EGF (final 50 ng/ml, R&D), NOGGIN (final 100 ng/ml, R&D), WNT3A (final 100 ng/ml, R&D), RSPO1 (final 500 ng/ml, Peprotech) or the PORCUPINE inhibitor C59 (final 1μM, Biogems) were added singly or in combination to base media. Images were obtained ten days after primary plating with an inverted light microscope at 5X magnification. Each condition was plated in quadruplicate and organoid formation was quantified using the analyze particle (threshold=4902 pixels) plugin in ImageJ as previously described.
For B1, the “clonal AT2 organoid proliferation with exogenous growth factors” value is “did not enhance growth”.
Same read-out and setting: the value for B2 was “did not enhance growth”.
As to B3, the “clonal AT2 organoid proliferation with exogenous growth factors” value is “sufficient for clonal AT2 organoid proliferation”.
